For one substance, specific binding activity (pmol/mg-membrane) results are on record in article PMC3094209.

Experiment [1] deals with human angiotensin receptor type 2 expressed in P. pastoris (human) (UniProt P50052). Put plainly: radioligand binding; membranes from small-scale cultures; radioactive-labelled specific ligand; specific binding in pmol/mg-membrane, mean ± S.D., n = 3.
The target in experiment [2] is human angiotensin receptor type 2 expressed in Sf9 insect cells (human) (UniProt P50052). The description is as above.

On to “Angiotensin (printed as "Angiotenin"), radioactive-labelled agonist (peptide)”, for which the results for the specific binding activity (pmol/mg-membrane) in experiment [1] and in experiment [2] were 3.69 and 1.66, respectively.
